In general, IC50 refers to the midpoint of a concentration-inhibition curve.

The results in this text go back to patent publication US20240181006A1, “POLYPEPTIDES BINDING ADAMTS5, MMP13 AND AGGRECAN” (Merck Patent GmbH, priority 2017, published 2024).

The subject of assay [1] is bovine cartilage explant chips. Put plainly: bovine cartilage explant assay, IL-1α induced GAG release (02F03). Format: cell-based. As to the method:
In addition, ISVD 02F03 was further evaluated for its ability to block cartilage degradation in an ex vivo assay, in which the substrate is presented in a condition closer to the physiological condition compared to biochemical assays. In brief, bovine cartilage explant chips (diameter 4 mm) were prepared freshly from cow knee joints and incubated in 96-well plates in presence of IL-1α to induce cartilage degradation. As a measure of cartilage/Aggrecan degradation, the release of glycosaminoglycan (GAG) was detected in the supernatant after 5 days of incubation (37° C., 7.5% C02) via the metachromatic dye 1,9 dimethylmethylene blue ([…] at 633 nm). Chondroitin sulphate was included as assay standard. Efficacy was defined by means of the IL-1α-induced controls without compound (0%) and in presence of MSC2310852A (100% effect).

The subject of assay [2] is cynomolgus monkey ADAMTS5. As to the kind of experiment: SPR-based off-rate analysis, cynomolgus ADAMTS5. Format: binding. To be noted: Experiment 1. As to the method: (§1) Species cross-reactivity was initially evaluated via SPR-based off-rate analysis on a Biacore T100 instrument. Polypeptides were tested for binding to human, cynomolgus monkey (“cyno”), guinea pig, mouse, and bovine ADAMTS5. To this end, recombinant ADAMTS5 was immobilized onto a CM5 chip via amine coupling using EDC and NHS. Purified ISVD 02F03 was injected for 2 minutes at a concentration of 100 nM and allowed to dissociate for 15 min at a flow rate of 45 μl/min. Off-rate for each individual ADAMTS5 was determined by fitting a 1:1 interaction model (Langmuir model) onto the individual dissociation curves using the BIA Evaluation software. As a reference, off-rates on human ADAMTS5 were determined in each experiment.

The target in a further assay is T1, human MMP1 (Homo sapiens, UniProt P03956).
T1 sequence (P03956 100-469): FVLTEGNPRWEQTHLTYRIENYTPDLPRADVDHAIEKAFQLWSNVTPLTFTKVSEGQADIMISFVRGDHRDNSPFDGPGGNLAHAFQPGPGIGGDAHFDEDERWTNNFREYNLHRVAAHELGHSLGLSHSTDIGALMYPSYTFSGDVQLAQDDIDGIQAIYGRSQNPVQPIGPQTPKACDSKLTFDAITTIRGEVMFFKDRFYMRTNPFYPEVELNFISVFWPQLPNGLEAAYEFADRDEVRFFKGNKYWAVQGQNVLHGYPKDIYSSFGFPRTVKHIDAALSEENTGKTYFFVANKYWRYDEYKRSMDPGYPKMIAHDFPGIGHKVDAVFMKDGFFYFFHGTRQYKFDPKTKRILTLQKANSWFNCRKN
Put plainly: FRET-based human MMP1 assay (selectivity of 02F03). Type of assay: biochemical. To be noted: data not shown. As to the method:
(§2) To confirm the selectivity of ISVD 02F03 for ADAMTS5, inhibition of the enzymatic activity of MMP1, MMP14 and ADAMTS4 was evaluated via FRET-based assays and a human ADAMTS4 AlphaLISA, with the respective enzymes.
(§3) Activated human MMP1 or MMP14 was incubated for 30 minutes at room temperature with 10 μl of dilution series of ISVD 02F03. After incubation, 20 μl of respectively 5 μM or 2.5 μM fluorogenic peptide substrate (Mca-PLGL-Dpa-AR-NH2 Fluorogenic MMP Substrate (R&D Systems cat #ES001)) was added. The ability of ISVD 02F03 to prevent MMP1- and MMP14-mediated cleavage was monitored every minute for 2 hours at 37° C. on a Tecan Infinite M1000 plate reader.

Another assay addresses T2, human ADAMTS5 (Homo sapiens, UniProt Q9UNA0).
T2 sequence (Q9UNA0 262-930): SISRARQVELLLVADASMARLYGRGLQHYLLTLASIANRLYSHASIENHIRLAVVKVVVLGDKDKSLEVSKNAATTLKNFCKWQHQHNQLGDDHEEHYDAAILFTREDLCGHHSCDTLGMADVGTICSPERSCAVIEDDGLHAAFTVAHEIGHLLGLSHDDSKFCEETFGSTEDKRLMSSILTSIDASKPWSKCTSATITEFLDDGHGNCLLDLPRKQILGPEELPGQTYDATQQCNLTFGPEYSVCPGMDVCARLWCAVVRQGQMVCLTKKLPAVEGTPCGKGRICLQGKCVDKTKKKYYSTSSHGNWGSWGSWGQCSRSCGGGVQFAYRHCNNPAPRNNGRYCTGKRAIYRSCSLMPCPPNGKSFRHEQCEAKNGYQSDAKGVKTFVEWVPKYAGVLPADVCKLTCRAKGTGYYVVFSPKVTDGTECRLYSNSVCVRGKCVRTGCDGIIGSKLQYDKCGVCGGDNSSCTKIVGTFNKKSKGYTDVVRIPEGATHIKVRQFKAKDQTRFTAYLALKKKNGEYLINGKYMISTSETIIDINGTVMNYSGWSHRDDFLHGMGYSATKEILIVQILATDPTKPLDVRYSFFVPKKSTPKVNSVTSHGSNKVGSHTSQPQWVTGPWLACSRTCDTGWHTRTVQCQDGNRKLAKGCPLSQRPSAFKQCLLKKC
Put plainly: SPR-based off-rate analysis, human ADAMTS5. Format: binding. How it is done:
as §1

For a further assay, the target named is human MMP14 (Homo sapiens, UniProt P50281). Put plainly: FRET-based human MMP14 assay (selectivity of 02F03). Type of assay: biochemical. As to conditions: data not shown. As to the method:
as §2, §3

B1: ISVD 02F03: immunoglobulin single variable domain which specifically binds ADAMTS5 (protein)
VHH: EVQLVESGGGVVQPGGSLRLSCAASGRTVSSYAMGWFRQAPGKEREFVAGISRSAERTYYVDSLKGRFTISRDNSKNTVYLQMNSLRPEDTALYYCAADLDPNRIFSREEYAYWGQGTLVTVSS
modifications: Description of Artificial Sequence: Synthetic anti-ADAMTS5 immunoglobulin single variable domain (ISVD)
B1 had an IC50 in assay [1] (IL-1α, GAG release after 5 days) of 14 nM. In addition, the “IC50 times lower than mAb 12F4 in bovine explant assay” value in assay [1] (versus bivalent mAb 12F4) is “about 50 times”. Moreover, the “SPR based off-rate, kd, Cyno ADAMTS-5” value in assay [2] amounted to 2.2e-05 s⁻¹. Besides, in the assay with human MMP1, the “inhibition of MMP1 activity” value is recorded as “did not show any inhibition”. Also, the “SPR based off-rate, kd, Human ADAMTS-5” value in the assay with human ADAMTS5 (Experiment 1) was determined as 3.3e-05 s⁻¹; in the assay with human ADAMTS5 (Experiment 2) it was 6.5e-05 s⁻¹; with human ADAMTS5 (Experiment 3), 9.7e-05 s⁻¹. The “inhibition of MMP14 activity” value with human MMP14 was “did not show any inhibition”.
